Results on 4 substances are retold here after US20190183976A1.

The target of one assay is CXCR4 (human) (UniProt P61073). Description: cell-based or functional assay.
For another assay, the target named is CXCR4-VN (human) (UniProt P61073). The experiment in a line: BiFC, U-2 OS cells, CXCR4-VN & GPCRx-VC; score=(positive cells/total cells)x100.
Chain of CXCR4-VN (human) (P61073 whole entry): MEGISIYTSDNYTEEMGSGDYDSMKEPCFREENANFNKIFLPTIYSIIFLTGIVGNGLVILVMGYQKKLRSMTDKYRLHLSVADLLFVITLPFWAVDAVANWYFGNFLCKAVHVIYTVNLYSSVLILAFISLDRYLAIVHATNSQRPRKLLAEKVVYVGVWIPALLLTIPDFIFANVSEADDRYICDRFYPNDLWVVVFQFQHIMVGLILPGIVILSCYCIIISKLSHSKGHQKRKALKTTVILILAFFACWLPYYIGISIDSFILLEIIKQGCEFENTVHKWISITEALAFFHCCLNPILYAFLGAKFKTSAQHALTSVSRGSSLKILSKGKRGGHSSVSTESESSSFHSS

Chain of CXCR4 (human) (P61073 whole entry): as above
Chain of CCR5-VC, P51681 1-352 (receptor; other documents disagree on this pair) (P51681 whole entry): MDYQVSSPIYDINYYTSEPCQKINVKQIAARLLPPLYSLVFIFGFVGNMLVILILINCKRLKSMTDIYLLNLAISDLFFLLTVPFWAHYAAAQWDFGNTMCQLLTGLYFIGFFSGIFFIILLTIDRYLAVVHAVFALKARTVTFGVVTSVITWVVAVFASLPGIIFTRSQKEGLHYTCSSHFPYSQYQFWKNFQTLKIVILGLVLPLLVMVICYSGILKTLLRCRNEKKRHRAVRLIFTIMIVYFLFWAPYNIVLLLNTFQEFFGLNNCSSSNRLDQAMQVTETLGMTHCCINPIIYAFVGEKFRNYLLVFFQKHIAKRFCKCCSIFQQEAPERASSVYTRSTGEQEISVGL

As to 12G5 (antibody), in the assay with CXCR4 (human), the IC50 of Ca2+ response; MDA-MB-231 expressing CXCR4+ADRB2; + carvedilol 10 µM; CXCL12 20 nM + salmeterol 1 µM was 2.78 nM, the IC50 of Ca2+ response; MDA-MB-231 expressing CXCR4+ADRB2; no carvedilol; CXCL12 20 nM + salmeterol 1 µM is 13.9 nM and the IC50 of Ca2+ response; MDA-MB-231 expressing CXCR4 alone; CXCL12 20 nM + salmeterol 1 µM stood at 80.2 nM.
As for BKT140 (peptide), in the assay with CXCR4 (human), the IC50 of Ca2+ response; MDA-MB-231 with CXCR4+ADCYAP1R1; CXCL12 20 nM + PACAP-38 1 nM; + M65 1 µM amounted to 7.46 nM, the IC50 of Ca2+ response; MDA-MB-231 with CXCR4+ADCYAP1R1; CXCL12 20 nM + PACAP-38 1 nM; + PACAP-(6-38) 1 µM is 19.6 nM, the IC50 of Ca2+ response; MDA-MB-231 with CXCR4+ADCYAP1R1; CXCL12 20 nM + PACAP-38 1 nM; no ADCYAP1R1 inhibitor was found to be 213 nM and the IC50 of Ca2+ response; MDA-MB-231 with CXCR4+C5AR1; CXCL12 20 nM + C5a 0.03 nM; + W54011 10 µM was 9.72 nM. Besides, in the assay with CXCR4 (human), the IC50 of Ca2+ response; MDA-MB-231 with CXCR4+C5AR1; CXCL12 20 nM + C5a 0.03 nM; no C5AR1 inhibitor came out at 118 nM, the IC50 of Ca2+ response; MDA-MB-231 with CXCR4+CALCR; CXCL12 20 nM + calcitonin 100 nM; + CT-(8-32) (salmon) 10 µM was 15.6 nM and the IC50 of Ca2+ response; MDA-MB-231 with CXCR4+CALCR; CXCL12 20 nM + calcitonin 100 nM; no CALCR inhibitor is 1040 nM.
In turn, “CCR5-VC, P51681 1-352 (receptor; other documents disagree on this pair)” displayed a BiFC score with CXCR4-VN (human) of 44.
Turning to TZ14011 (peptide), in the assay with CXCR4 (human), the IC50 of Ca2+ response; MDA-MB-231 expressing CXCR4+ADRB2; + carvedilol 10 µM; CXCL12 20 nM + salmeterol 1 µM came out at 0.02 nM, the IC50 of Ca2+ response; MDA-MB-231 expressing CXCR4+ADRB2; no carvedilol; CXCL12 20 nM + salmeterol 1 µM is 17.8 nM, the IC50 of Ca2+ response; MDA-MB-231 expressing CXCR4 alone; CXCL12 20 nM + salmeterol 1 µM turned out to be 23.9 nM and the fold decrease of the IC50 of Ca2+ response in CXCR4-ADRB2 cells on co-treatment with carvedilol was 890 fold.
